# Target: SpyTag fused to an elastin-like polypeptide with a C-terminal cysteine
# Assay: core-shell assembly of protein-coated particles
substance,measurement,value
SpyCatcher fused to an elastin-like polypeptide with a C-terminal cysteine (designed binder),percent of the core aggregate surface occupied by green (shell) particles,60%
